Experimental findings from patent US20210206841A1 (RESEARCH INSTITUTE AT NATIONWIDE CHILDREN S HOSPITAL, published 2021) are described below.

Assay [1] has as its target T1, tip-chimeric peptide IhfA5-mIhfB4NTHI (nontypeable Haemophilus influenzae …).
T1 construct: also called IHF(NTHI) tip chimeric peptide; IHFNTHI tip chimeric peptide
T1 peptide: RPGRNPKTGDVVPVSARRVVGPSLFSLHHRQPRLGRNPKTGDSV
The assay is described as follows: SPR Biacore 3000, peptide immobilized, HuMab as analyte. In general terms: Surface plasmon resonance follows binding to a sensor surface in real time, without labels.

The target of assay [2] is T1, tip-chimeric peptide IhfA5-mIhfB4NTHI. The assay is described as follows: SPR Biacore 3000, HuMab immobilized, peptide as analyte.
The target of assay [3] is T2, native IHFNTHI (integration host factor of nontypeable Haemophilus influenzae) (nontypeable Haemophilus influenzae …, UniProt P43723 1-96; P43724 1-94).
T2 construct: also called NTHI IHF
T2 sequence 1: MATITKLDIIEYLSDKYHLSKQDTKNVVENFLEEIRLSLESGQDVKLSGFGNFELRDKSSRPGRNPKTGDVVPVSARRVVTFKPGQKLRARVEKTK
T2 sequence 2: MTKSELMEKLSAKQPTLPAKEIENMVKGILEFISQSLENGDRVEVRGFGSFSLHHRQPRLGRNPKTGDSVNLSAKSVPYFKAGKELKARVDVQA
Briefly: SPR Biacore 3000, IHFNTHI immobilized, HuMab as analyte.

The target in assay [4] is T2, native IHFNTHI (integration host factor …). The assay is described as follows: SPR Biacore 3000, HuMab immobilized, IHFNTHI as analyte.
The target of assay [5] is T1, tip-chimeric peptide IhfA5-mIhfB4NTHI. Briefly: direct ELISA #2, peptide coated (curves reaching equilibrium). (An ELISA detects its analyte on a solid surface through an enzyme-linked reagent.)
The target is the same in assay [6]. Briefly: direct ELISA #1, peptide coated (curves not reaching equilibrium).
Assay [7] concerns the target T3, tail-chimeric peptide IhfA3-IhfB2NTHI (nontypeable Haemophilus influenzae …).
T3 construct: also called IHF(NTHI) tail chimeric peptide; IHFNTHI tail chimeric peptide
T3 peptide: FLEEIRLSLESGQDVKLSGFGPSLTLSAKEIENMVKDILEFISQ
Briefly: direct ELISA #2, peptide coated (curves reaching equilibrium).

Assay [8] addresses T3, tail-chimeric peptide IhfA3-IhfB2NTHI. Briefly: SPR Biacore 3000, peptide immobilized, HuMab as analyte.
For assay [9] the target is unchanged. Briefly: direct ELISA #1, peptide coated (curves not reaching equilibrium).

Where a chain is given by its changes, count along the chain named.

B1: humanized anti-tip monoclonal antibody, heavy chain SEQ ID NO: 1 and light chain SEQ ID NO: 9 (antibody, V domains shown)
VH: EVKLVESGGGLVQPGGSLRLSCAASGFTFRTYAMSWVRQAPGKGLEWVATIGSDRRHTYYPDSVKGRFTISRDNAKNTLYLQMNSLRAEDTAVYYCVGPYDGYYGEFDYWGQGTLVTVSS
VL: DVVMTQSPDSLAVSLGERATINCKSSQSLLDSDGKTFLNWLQQKPGQPPKRLIYLVSKLDSGVPDRFSGSGSGTDFTLTISSLQAEDVAVYYCWQGTHFPYTFGQGTKLEIKR
notes: also called H10210 (1F8.F1 Humanized HC1) + L10212 (1F8.F1 Humanized LC3)
For the molecule B1, the equilibrium dissociation constant (Kd) in assay [1] amounted to 0.3 nM; in assay [2], 152 nM; in assay [3], 24 nM; in assay [4], 0.6 nM. Besides, the koff in assay [1] came out at 1.3e-05 s⁻¹; in assay [2], 0.00038 s⁻¹; in assay [3], 0.16 s⁻¹; in assay [4], 0.00037 s⁻¹. Further, the kon in [1] amounted to 40000 M⁻¹ s⁻¹; in [2], 2500 M⁻¹ s⁻¹; in assay [3] it was 6.5e+06 M⁻¹ s⁻¹; in [4] it was 630000 M⁻¹ s⁻¹. Moreover, the EC50 in assay [5] is 0.055 µg/mL; in assay [6] it was 0.032 µg/mL.

B2: humanized anti-tip monoclonal antibody, heavy chain SEQ ID NO: 3 and light chain SEQ ID NO: 9 (antibody, V domains shown)
VH: EVKLVQSGAEVKKPGASVKVSCKASGFTFRTYAMSWVRQAPGQRLEWVATIGSDRRHTYYPDKFQGRVTITRDNAKNTLYMELSSLRSEDTAVYYCVGPYDGYYGEFDYWGQGTLVTVSS
VL: B1 VL
notes: also called H10212 (1F8.F1 Humanized HC3) + L10212 (1F8.F1 Humanized LC3)
Take B2: the Kd in assay [1] was 3 nM; in assay [2] it was 200 nM; in assay [3], 3400 nM; in assay [4] it was 1600 nM. The koff in assay [1] worked out at 0.00021 s⁻¹; in [2], 0.0019 s⁻¹; in [3] it was 0.016 s⁻¹; in assay [4], 0.0027 s⁻¹. Also, the kon turned out to be 79000 M⁻¹ s⁻¹ in assay [1], 9500 M⁻¹ s⁻¹ in assay [2], 4600 M⁻¹ s⁻¹ in [3] and 1700 M⁻¹ s⁻¹ in assay [4]. The EC50 in assay [5] was 0.111 µg/mL; in assay [6] it was 0.035 µg/mL.

B3: humanized anti-tip monoclonal antibody, heavy chain SEQ ID NO: 2 and light chain SEQ ID NO: 9 (antibody, V domains shown)
VH: B1 VH with K3Q, A75S
VL: B1 VL
notes: also called H10211 (1F8.F1 Humanized HC2) + L10212 (1F8.F1 Humanized LC3)
Regarding B3, the Kd in assay [1] was determined as 4 nM; in [2], 23 nM; in assay [3], 125 nM; in assay [4], 62 nM. Moreover, the koff in assay [1] is 1.2e-05 s⁻¹; in assay [2], 7.4e-05 s⁻¹; in assay [3], 0.0017 s⁻¹; in [4] it was 0.00045 s⁻¹. Also, the kon in assay [1] was determined as 3700 M⁻¹ s⁻¹; in assay [2] it was 3500 M⁻¹ s⁻¹; in [4], 7200 M⁻¹ s⁻¹. In addition, the EC50 in assay [5] was found to be 0.0453 µg/mL; in [6], 0.027 µg/mL.

B4: humanized anti-tail monoclonal antibody, heavy chain SEQ ID NO: 4 and light chain SEQ ID NO: 12 (antibody, V domains shown)
VH: EVQLVESGGGLVKPGGSLRLSCAASGFTFSRYGMSWVRQAPGKGLEWVATISSGGSYTYYTDSVKGRFTISRDNAKNSLYLQMNSLRAEDTAVYYCERHGGDGYWYFDVWGQGTMVTVSS
VL: DIVMTQSPATLSLSPGERATLSCRASQDISNYLNWYQQKPGQAVRLLIYYTSRLHSGIPARFSGSGSGTDYTLTISSLEPEDFAVYFCQQGNPLRTFGGGTKVEIKR
notes: also called H10213 (11E7.C7 Humanized HC1) + L10215 (11E7.C7 Humanized LC3)
On to B4, for which the EC50 in assay [7] is 0.0404 µg/mL. In [8], this molecule showed a Kd of 5.1 nM, a koff of 0.00056 s⁻¹ and a kon of 110000 M⁻¹ s⁻¹. The molecule also displayed an EC50 in assay [9] of 0.012 µg/mL.

A word on the Kd: it is a measure of binding affinity in units of concentration. Higher therefore signals a looser complex. A word on the koff: it is the rate constant with which the complex falls apart. Low values mean a long-lived complex, high ones a short-lived complex. Broadly, the kon is the second-order rate constant of association. Lower therefore signals slow association. For orientation: EC50 means the midpoint of the concentration-response curve. A high value points to a less potent agent.
